Data reported in the supplement of paper PMC10065799, “High-throughput profiling of sequence recognition by tyrosine kinases and SH2 domains using bacterial peptide display” (eLife, 2023).

What was measured:
AncSZ = experiment: phosphorylation enrichment, bacterial display (enrichment ratio); higher = better substrate or ligand; peptides without Tyr show the background
EPHB1 = EPHB1 (UniProt P54762); experiment: as above
EPHB2 = EPHB2 (UniProt P29323); experiment: as above
FGFR1 = FGFR1 (UniProt P11362); experiment: as above
Chain of FGFR1 (P11362 whole entry, looked up): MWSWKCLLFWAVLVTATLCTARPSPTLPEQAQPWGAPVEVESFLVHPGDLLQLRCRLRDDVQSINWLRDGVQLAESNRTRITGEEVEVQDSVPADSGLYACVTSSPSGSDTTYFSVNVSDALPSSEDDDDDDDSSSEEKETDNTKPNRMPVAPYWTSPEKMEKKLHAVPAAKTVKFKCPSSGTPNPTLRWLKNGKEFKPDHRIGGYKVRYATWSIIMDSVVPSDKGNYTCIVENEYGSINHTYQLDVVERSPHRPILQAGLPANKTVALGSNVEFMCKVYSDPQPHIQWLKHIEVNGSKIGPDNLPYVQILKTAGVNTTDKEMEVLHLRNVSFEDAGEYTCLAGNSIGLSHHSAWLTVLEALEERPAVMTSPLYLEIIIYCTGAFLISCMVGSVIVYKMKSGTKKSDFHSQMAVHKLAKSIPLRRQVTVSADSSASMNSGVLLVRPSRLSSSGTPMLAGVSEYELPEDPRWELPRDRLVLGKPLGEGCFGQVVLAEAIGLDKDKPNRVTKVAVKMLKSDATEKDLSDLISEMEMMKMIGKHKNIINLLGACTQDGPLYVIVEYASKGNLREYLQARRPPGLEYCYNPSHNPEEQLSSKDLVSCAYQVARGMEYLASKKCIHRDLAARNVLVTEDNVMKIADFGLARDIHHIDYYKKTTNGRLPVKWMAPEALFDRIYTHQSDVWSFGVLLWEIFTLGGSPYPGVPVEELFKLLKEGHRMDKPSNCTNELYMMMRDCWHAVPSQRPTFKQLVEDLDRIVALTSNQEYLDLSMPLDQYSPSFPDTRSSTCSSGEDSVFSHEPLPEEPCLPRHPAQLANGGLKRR

FGFR3 = FGFR3 (UniProt P22607); experiment: as above
Chain of FGFR3 (P22607 whole entry, looked up): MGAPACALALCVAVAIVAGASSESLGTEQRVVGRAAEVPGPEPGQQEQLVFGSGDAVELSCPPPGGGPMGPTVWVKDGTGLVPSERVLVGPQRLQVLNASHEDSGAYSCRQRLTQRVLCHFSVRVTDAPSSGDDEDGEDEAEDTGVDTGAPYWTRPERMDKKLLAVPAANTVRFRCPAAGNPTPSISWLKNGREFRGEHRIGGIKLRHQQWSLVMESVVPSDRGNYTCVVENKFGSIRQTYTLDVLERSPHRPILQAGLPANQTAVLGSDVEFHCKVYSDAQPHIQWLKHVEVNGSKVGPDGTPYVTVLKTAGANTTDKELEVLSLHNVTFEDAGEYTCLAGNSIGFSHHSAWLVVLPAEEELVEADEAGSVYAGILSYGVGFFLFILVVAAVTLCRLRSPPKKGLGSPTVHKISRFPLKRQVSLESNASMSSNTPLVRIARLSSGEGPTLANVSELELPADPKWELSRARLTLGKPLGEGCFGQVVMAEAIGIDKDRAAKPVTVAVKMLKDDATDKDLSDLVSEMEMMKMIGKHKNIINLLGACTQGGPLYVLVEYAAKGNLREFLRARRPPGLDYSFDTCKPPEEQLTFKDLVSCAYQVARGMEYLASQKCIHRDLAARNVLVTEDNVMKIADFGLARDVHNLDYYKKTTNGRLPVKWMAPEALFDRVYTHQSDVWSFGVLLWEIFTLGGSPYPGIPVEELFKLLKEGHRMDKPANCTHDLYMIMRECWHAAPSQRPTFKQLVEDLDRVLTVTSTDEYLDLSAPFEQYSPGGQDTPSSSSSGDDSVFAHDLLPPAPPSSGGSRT

Fer (mouse) = experiment: as above
Fes = Fes (UniProt P07332); experiment: as above
Fyn = Fyn (UniProt P06241); experiment: as above
Chain of Fyn (P06241 whole entry, looked up): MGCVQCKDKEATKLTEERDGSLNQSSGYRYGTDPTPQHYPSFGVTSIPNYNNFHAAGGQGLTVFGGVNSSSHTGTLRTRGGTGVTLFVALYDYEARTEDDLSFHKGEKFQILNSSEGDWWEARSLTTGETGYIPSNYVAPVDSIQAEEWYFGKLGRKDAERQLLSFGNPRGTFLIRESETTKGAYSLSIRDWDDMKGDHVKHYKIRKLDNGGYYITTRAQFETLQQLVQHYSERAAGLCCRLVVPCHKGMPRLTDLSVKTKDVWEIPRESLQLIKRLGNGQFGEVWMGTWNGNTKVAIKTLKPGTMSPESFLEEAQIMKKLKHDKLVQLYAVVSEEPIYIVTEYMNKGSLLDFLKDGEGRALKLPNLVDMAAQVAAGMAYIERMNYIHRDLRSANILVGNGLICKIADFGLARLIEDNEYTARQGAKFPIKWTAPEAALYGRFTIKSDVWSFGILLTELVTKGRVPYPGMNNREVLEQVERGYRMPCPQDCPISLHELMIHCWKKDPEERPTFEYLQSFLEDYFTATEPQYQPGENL

Hck = Hck (UniProt P08631); experiment: as above
Chain of Hck (P08631 whole entry, looked up): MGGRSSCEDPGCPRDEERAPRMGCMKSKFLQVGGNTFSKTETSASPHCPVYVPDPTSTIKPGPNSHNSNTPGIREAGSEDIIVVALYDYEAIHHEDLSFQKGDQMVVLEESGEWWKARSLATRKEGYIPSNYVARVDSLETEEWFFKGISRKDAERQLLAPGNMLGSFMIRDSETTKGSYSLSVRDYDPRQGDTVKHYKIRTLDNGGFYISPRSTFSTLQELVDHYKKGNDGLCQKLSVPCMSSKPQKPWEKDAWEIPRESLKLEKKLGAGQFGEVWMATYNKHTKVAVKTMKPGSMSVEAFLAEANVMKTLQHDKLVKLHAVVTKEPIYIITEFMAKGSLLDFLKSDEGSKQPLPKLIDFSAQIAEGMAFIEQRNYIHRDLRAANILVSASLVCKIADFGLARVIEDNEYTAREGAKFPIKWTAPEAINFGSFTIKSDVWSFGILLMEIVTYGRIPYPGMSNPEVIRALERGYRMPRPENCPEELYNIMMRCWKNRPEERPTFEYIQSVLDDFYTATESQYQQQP

Jak2 = Jak2 (UniProt O60674); experiment: as above
Chain of Jak2 (O60674 whole entry, looked up): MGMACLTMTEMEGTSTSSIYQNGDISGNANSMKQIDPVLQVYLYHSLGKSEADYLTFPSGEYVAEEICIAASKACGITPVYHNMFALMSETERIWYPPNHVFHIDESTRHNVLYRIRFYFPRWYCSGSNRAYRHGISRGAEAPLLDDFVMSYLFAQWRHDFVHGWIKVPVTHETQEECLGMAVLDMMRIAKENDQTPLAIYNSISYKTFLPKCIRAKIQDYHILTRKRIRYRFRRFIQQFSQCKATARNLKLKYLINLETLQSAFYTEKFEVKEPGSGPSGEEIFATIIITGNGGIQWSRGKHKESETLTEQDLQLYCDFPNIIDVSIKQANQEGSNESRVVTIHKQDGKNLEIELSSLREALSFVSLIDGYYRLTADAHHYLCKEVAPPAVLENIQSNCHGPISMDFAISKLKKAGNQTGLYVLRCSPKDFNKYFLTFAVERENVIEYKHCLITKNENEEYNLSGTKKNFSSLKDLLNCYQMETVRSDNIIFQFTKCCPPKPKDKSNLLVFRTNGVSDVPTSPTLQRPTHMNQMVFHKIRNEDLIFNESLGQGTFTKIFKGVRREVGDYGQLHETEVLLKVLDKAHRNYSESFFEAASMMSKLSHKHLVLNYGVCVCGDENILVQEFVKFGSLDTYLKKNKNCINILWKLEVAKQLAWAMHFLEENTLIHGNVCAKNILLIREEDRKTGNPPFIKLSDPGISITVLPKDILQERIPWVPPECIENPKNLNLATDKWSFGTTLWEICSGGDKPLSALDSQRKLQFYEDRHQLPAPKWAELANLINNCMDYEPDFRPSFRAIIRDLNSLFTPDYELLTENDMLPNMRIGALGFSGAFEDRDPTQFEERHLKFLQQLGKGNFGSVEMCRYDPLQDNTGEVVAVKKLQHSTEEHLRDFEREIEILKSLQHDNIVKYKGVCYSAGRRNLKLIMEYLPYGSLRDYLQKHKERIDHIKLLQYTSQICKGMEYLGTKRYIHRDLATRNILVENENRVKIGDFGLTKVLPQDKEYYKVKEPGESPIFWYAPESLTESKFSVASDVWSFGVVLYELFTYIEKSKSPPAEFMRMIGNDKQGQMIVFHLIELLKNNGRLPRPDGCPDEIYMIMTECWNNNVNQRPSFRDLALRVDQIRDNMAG

MERTK = MERTK (UniProt Q12866); experiment: as above
c-Abl (mouse) = experiment: as above
c-Src = experiment: as above
Grb2 SH2 = Grb2 SH2 (UniProt P62993); experiment: SH2 binding enrichment of the phosphorylated peptide, bacterial display (enrichment ratio); higher = better substrate or ligand; peptides without Tyr show the background
Chain of Grb2 SH2 (P62993 whole entry, looked up): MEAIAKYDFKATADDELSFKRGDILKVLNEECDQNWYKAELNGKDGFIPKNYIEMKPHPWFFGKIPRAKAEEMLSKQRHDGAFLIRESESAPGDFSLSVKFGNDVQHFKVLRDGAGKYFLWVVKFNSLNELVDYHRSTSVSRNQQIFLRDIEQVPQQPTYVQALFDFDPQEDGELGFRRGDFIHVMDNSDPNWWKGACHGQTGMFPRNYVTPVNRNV

SHP2-C SH2 = experiment: as above
c-Src SH2 = experiment: as above
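Wherever SH2 binding enrichment of the phosphorylated peptide, bacterial display is given: peptide library displayed on the E. coli surface as eCPX fusions, selected cells deep-sequenced, score is each peptide's frequency after selection divided by its frequency in the input.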
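Wherever phosphorylation enrichment, bacterial display is given: 11-residue human phosphosite peptides and single-mutation variants displayed on the E. coli surface, counted by deep sequencing, each peptide's frequency after selection divided by its frequency in the unselected input library; frequency after pTyr selection over input frequency; kinase dosed for 20-30% of maximal phosphorylation in three min.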

Chain of EPHB1 (P54762 whole entry, looked up): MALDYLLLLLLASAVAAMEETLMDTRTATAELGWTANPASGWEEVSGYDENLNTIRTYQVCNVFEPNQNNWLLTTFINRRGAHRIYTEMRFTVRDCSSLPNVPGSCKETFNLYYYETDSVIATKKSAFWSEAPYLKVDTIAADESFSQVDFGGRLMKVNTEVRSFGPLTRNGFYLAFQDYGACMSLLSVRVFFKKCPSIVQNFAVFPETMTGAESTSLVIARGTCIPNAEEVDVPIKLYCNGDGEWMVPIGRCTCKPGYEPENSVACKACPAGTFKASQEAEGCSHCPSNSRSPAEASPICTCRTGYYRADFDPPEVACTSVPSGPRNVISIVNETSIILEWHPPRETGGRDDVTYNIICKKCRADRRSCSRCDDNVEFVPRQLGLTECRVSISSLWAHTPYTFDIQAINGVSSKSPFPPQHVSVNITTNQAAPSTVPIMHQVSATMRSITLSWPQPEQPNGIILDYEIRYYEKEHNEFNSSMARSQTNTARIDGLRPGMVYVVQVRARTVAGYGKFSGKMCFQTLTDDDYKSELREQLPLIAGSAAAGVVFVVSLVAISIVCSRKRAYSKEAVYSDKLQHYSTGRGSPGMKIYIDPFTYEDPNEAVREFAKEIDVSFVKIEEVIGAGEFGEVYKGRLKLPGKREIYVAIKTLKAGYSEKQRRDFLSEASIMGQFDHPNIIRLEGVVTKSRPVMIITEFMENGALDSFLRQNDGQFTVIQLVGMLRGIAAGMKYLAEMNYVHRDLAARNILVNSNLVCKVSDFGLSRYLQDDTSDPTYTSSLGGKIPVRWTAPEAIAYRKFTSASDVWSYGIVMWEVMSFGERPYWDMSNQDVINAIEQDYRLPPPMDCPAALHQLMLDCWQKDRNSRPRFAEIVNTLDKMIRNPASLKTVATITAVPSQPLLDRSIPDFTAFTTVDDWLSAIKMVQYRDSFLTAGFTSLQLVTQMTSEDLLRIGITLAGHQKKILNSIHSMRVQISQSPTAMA

| Sequence | phosphorylation enrichment (AncSZ) | phosphorylation enrichment (EPHB1) | phosphorylation enrichment (EPHB2) | phosphorylation enrichment (FGFR1) | phosphorylation enrichment (FGFR3) | phosphorylation enrichment (Fer (mouse)) | phosphorylation enrichment (Fes) | phosphorylation enrichment (Fyn) | phosphorylation enrichment (Hck) | phosphorylation enrichment (Jak2) | phosphorylation enrichment (MERTK) | phosphorylation enrichment (c-Abl (mouse)) | phosphorylation enrichment (c-Src) | SH2 binding enrichment (Grb2 SH2) | SH2 binding enrichment (SHP2-C SH2) | SH2 binding enrichment (c-Src SH2) |
| --- | --- | --- | --- | --- | --- | --- | --- | --- | --- | --- | --- | --- | --- | --- | --- | --- |
| RPCVVYGGADI [DDX3X_Y301] | 1 | 0.901 | 0.543 | 0.715 | 0.735 | 0.653 | 1.02 | 1.07 | 1.12 | 0.668 | 0.642 | 0.703 | 1.44 | 0.823 | 0.773 | 0.6 |
| RPGSGYTNIMR [PKLR_Y564] | 0.64 | 0.345 | 0.588 | 0.439 | 0.415 | 0.429 | 0.586 | 0.919 | 0.784 | 0.532 | 0.579 | 0.723 | 0.707 | 1.32 | 1.43 | 2.58 |
| RPPFTYATLIH [FOXP3_Y342_R347H] | 1.07 | 1.87 | 0.753 | 0.641 | 1.16 | 0.766 | 1.22 | 1.68 | 2.06 | 0.933 | 1.26 | 0.922 | 3.31 | 1.08 | 32.6 | 1.98 |
| RPSELYFSKIS [SMG1_Y2253_G2258S_YF] | 0.933 | 2 | 1.05 | 1.22 | 1.1 | 0.724 | 1.4 | 1.4 | 2.85 | 1.06 | 0.886 | 0.834 | 0.691 | 0.741 | 0.702 | 0.758 |
| RQIQSYTCEID [DES_Y331_H326R] | 1.02 | 0.522 | 0.514 | 0.515 | 0.726 | 0.485 | 1.08 | 0.642 | 0.745 | 0.833 | 0.489 | 0.817 | 0.474 | 0.899 | 0.701 | 0.674 |
| RQQEVYLLYKQ [RARRES1_Y159_D158V] | 1.5 | 0.757 | 0.855 | 0.672 | 1.11 | 0.611 | 1.98 | 0.919 | 0.877 | 1.34 | 0.842 | 1.13 | 1.41 | 0.918 | 0.765 | 0.61 |
| RQRTAYFSLNT [CDH1_Y68_D72N] | 0.794 | 0.661 | 0.68 | 0.586 | 0.745 | 0.552 | 1.1 | 0.699 | 0.423 | 1.34 | 0.566 | 0.77 | 0.667 | 0.901 | 14.9 | 0.871 |
| RQSHNYLGGFA [SYK_Y47_R45H] | 0.686 | 0.427 | 0.537 | 0.501 | 0.558 | 0.387 | 0.65 | 0.464 | 0.599 | 0.523 | 0.414 | 0.817 | 0.394 | 0.901 | 1.13 | 0.433 |
| RRAKGYPIDLY [ITGB2_Y125] | 1.07 | 0.684 | 0.87 | 0.718 | 0.889 | 0.73 | 1.29 | 0.787 | 1.18 | 1.34 | 1.17 | 0.868 | 1.28 | 0.707 | 0.627 | 0.466 |
| RRDRDYTNLPS [CSF1R_Y923_E920D] | 1.15 | 0.604 | 0.682 | 0.815 | 0.696 | 0.64 | 0.893 | 0.551 | 0.673 | 0.639 | 0.442 | 1.65 | 0.545 | 1.87 | 0.677 | 1.45 |
| RREWFYEVIIA [BACE1_Y260_V265A_YF] | 0.927 | 0.515 | 0.391 | 0.784 | 0.764 | 0.66 | 0.733 | 0.593 | 0.598 | 0.807 | 1.24 | 0.483 | 0.498 | 0.807 | 0.605 | 0.512 |
| RREWFYEVIIV [BACE1_Y260_YF] | 1.53 | 0.928 | 0.372 | 0.605 | 0.505 | 1.89 | 4.8 | 0.649 | 0.561 | 0.882 | 2.28 | 0.766 | 0.515 | 0.927 | 0.741 | 0.526 |
| RREWYYEVIIV [BACE1_Y260] | 0.874 | 0.516 | 0.725 | 2.85 | 2.03 | 0.835 | 0.751 | 0.571 | 0.718 | 0.389 | 0.832 | 0.771 | 0.635 | 0.873 | 0.75 | 0.545 |
| RRIHSYRGHLW [VHL_Y112] | 2.9 | 2.21 | 1.46 | 2.16 | 1.93 | 1.47 | 2.9 | 1.91 | 2.59 | 4.65 | 2.69 | 3.28 | 3.66 | 0.799 | 0.641 | 0.392 |
| RRIHSYRGHVW [VHL_Y112_L116V] | 1.56 | 0.733 | 0.486 | 0.899 | 0.965 | 0.559 | 0.99 | 0.861 | 0.736 | 1.35 | 1.12 | 0.848 | 1.04 | 0.578 | 0.25 | 0.396 |
